The text below walks through data of US20210292381A1.

In general, IC50 refers to the concentration that inhibits the measured activity by half.

The chains are these.
B1: P3f (modified gluten peptide …) (peptide)
peptide: PYPHPWLRGPQPQPF
B2: P3d (modified gluten peptide …) (peptide)
peptide: PYSQPESPYMQPQPF
B3: P2g (modified gluten peptide …) (peptide)
peptide: KLPYPQGRLPGPQPQ
B4: P3c (modified gluten peptide …) (peptide)
peptide: PYPHPRLPYTQPQPF
B5: P1g (modified gluten peptide …) (peptide)
peptide: LQLQPFWQPKLPGPQ
B6: P1f (modified gluten peptide …) (peptide)
peptide: LQLQPFDQPRLPWPQ

This assay deals with purified MHC. The experiment in a line: competition with radiolabeled known MHC binding peptide for purified MHC.
In turn, B1 registered an IC50 of 0.879 µM.

For B2, the IC50 was determined as 1.99 µM.

Take B3: the IC50 is 3.75 µM.

Take B4: the IC50 was determined as 2.99 µM.

As to B5, the IC50 worked out at 11.2 µM.

On to B6, for which the IC50 turned out to be 5.44 µM.
